Measurements: publication PMC4159047 (Science signaling, 2014)
Values belong to the molecule of their own block, whether it stands above or below them.

How the values were obtained:
type IV collagen [1] = assay: SPR
type IV collagen [2] = target: type IV collagen (biotin (Pierce EZ-link biotinylation kit) in the pull-downs); assay: SPR

Kd (type IV collagen [1]): 1.3 nM | koff (type IV collagen [1]): 0.000404 s⁻¹ | kon (type IV collagen [1]): 306000 M⁻¹ s⁻¹
Molecule: Gpr126-NT-Fc (secreted, Fc-tagged protein containing the N-terminal fragment of zebrafish Gpr126) (Fc fusion)

Kd (type IV collagen [2]): 1.2 nM | koff (type IV collagen [2]): 0.00333 s⁻¹ | kon (type IV collagen [2]): 2.78e+06 M⁻¹ s⁻¹
B1: CUBPTX-Fc (signal peptide, CUB domain and PTX domain of Gpr126 followed by an Fc tag) (Fc fusion, zebrafish, UniProt C6KFA3 41-336, looked up)
chain: CNVVLTDSQGSFTSPCYPNDYPPSQSCNWTIQAPAGFIVQITFLDFELEEAQGCIYDRVVVKTGTSDAKFCGLTANGLTLNSTGNVMEVFFNSDFSVQKKGFHISYKQVAVTLRNQKVTMPKSSKTILRVSNSISIPVLTAFTVCFEIARTAQKATETIFTLSDAAGTSILAFEKTSNGMELFIGASYCSVDNLLTSSDITATMKPLCLTWTKSSGLIGVYFGGHYFSSICSASQIYTLQSGGLLQIAGKGSSSVSVDDQNLDGFIYNFRLWDHAMLSSELSALTCDTVGNVVDWD
